The values that follow are results of earlier work, collected in PMC10518620.

The target in this data set is C3aR (Homo sapiens) (UniProt Q16581).
Chain of UniProt Q16581 (Q16581 whole entry): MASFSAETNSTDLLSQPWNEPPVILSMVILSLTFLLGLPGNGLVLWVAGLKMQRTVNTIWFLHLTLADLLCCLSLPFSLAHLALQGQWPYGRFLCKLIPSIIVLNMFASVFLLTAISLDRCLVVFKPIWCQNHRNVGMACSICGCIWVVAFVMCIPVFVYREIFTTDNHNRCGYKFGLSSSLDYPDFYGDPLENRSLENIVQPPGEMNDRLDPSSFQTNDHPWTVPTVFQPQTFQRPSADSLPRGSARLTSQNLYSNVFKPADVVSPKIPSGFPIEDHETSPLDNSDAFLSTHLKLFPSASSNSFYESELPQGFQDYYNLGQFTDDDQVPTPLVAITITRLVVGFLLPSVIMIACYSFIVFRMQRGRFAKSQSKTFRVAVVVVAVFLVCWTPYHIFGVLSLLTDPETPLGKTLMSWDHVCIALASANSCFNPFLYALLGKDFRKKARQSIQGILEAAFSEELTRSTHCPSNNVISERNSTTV

For orientation: Kd means the equilibrium constant for the complex coming apart. On to C3a C3a (from UniProt P01024), for which the Kd was 1 nM.
